This note sets out measurements from PMC11297306 (Nature Communications, 2024).

The assay addresses EEEV virus-like particles (strain PE6) (eastern equine encephalitis virus, strain PE6). Put plainly: BLI. (In general: In BLI a coated tip is dipped into the sample, and binding shifts an interference pattern.)

Consider “VLDLRLA1-Fc fusion protein (from UniProt P98155-1 31-69)”, for which the Kd (usually the equilibrium constant for the complex coming apart) is 15.5 µM. The result for “VLDLRLBD-Fc fusion protein (from UniProt P98155-1 31-355)” reads 0.0021 µM.
